Test results published in patent publication US20250099635A1 (Janssen / Centocor, published 2025).

B1: KL2B494 (Fab) (Fab, V domains shown)
VH: QVQLVESGGGLVQPGGSLRLSCAASGFTFSHYAMSWVRQAPGKGLEWVSTIGGSGGSTYYADSVKGRFTISRDNSKNTLYLQMNSLRAEDTAVYYCAKPHIVMVTALLYDGMDVWGQGTMVTVSS
VL: SSELTQPPSVSVAPGQTARITCGGNNIGSKSVHWYQQKPGQAPVLVVYDDSDRPSGIPERFSGSNSGNTATLTISRVEAGDEADYYCQVWDSSSDHVVFGGGTKLTVL
B2: KL2B30 (Fab) (Fab, V domains shown)
VH: QVQLQESGPGLVKPSETLSLTCTVSGGSISSYYWSWIRQPPGKGLEWIGYIYYSGSTNYNPSLKSRVTISVDTSKNQFSLKLSSVTAADTAVYYCAGTTIFGVVTPNFYYGMDVWGQGTTVTVSS
VL: DIQMTQSPSFLSASVGDRVTITCRASQGISSYLAWYQQKPGKAPKFLIYAASTLQSGVPSRFSGSGSGTEFTLTISSLQPEDFATYYCQQLNSYPLTFGGGTKVEIK
B3: KL2B467 (Fab) (Fab, V domains shown)
VH: QVQLVESGGGVVQPGRSLRLSCAASGFTFSYYGMHWVRQAPGKGLEWVAFISYDGSNKYYADSVKGRFTISRDNSKNTLYLQMNSLRAEDTAVYYCAHLPYSGSYWAFDYWGQGTQVTVSS
VL: QSVLTQPPSVSVAPGQTASITCGGDNIGSKSVHWYQQKPGQAPVLVVYDNSDRPSGIPERFSGSNSGTTATLTISRVEAGDEADYYCQVWDSSSDHPVVFGGGTKVTV
B4: KL2B53 (Fab) (Fab, V domains shown)
VH: EVQLVESGGGVVQPGRSLRLSCVASGFTFSSYDIHWVRQAPGKGLEWVAIISYDGSKKDYTDSVKGRFTISRDNSKNTLYLQMDSLRVEDSAVYSCARESGWSHYYYYGMDVWGQGTMVTVSS
VL: DIVMTQSPSSLSASVGDRVTITCRASQDISNYLAWYQQKPGKVPKFLIYAASTLHSGVPSRFSGSGSGTDFTLTISSLQPEDVATYYCQKYNSAPYTFGQGTRLEIK
B5: KL2B242 (Fab) (Fab, V domains shown)
VH: QVQLQESGPGLVKPSETLSLTCTVSGGSISSYYWSWLRQPAGSGLEWIGRLYVSGFTNYNPSLKSRVTLSLDPSRNQLSLKLSSVTAADTAVYYCAGDSGNYWGWFDPWGQGTLVTVSS
VL: SYELTQPPSVSVSPGETASITCSGDQLGENYACWYQQKPGQSPVLVIYQDSKRPSGIPERFSGSNSGNTATLTISGTQALDEADYYCQAWDNSIVVFGGGTKLTVL

target: T1, soluble human kallikrein related peptidase 2 (hK2) protein (human, UniProt P20151 19-261); assay: SPR; antibody captured by anti-Fc antibody, soluble hK2 injected; 1:1 Langmuir fit
T1 construct: The stated signal peptide is left out here; also called soluble hK2; KLK2
T1 sequence (P20151 19-261): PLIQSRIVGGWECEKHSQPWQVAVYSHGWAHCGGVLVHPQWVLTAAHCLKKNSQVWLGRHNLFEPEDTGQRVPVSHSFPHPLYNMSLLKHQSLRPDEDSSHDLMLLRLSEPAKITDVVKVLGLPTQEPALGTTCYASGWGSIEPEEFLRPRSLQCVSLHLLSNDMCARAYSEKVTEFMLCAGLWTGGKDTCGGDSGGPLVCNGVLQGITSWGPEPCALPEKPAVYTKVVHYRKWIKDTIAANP
Procedure: Affinity of selected hK2 antibodies for soluble hK2 was measured by surface plasmon resonance (SPR). […] Antibodies were captured on a sensor chip coated with an anti-Fc antibody followed by injection of soluble hK2 at various concentrations and specified association and dissociation times. Post dissociation, the surface was regenerated with an appropriate solution to prepare for the next interaction. Kinetic information (on-rate and off-rate constants) were extracted by fitting sensorgrams to the 1:1 Langmuir model. Binding affinity (KD) are reported as the ratio of rate constants (koff/kₒₙ).

Binder | Kd
B1 | 0.053 nM
B2 | 0.46 nM
B3 | 0.078 nM
B4 | 0.08 nM
B5 | 0.04 nM
